Laboratory results published in PMC3115387 (Proteins, 2011).

Molecular target: the molecule itself
Assay: native gel or EMSA

B1: Mitomycin-7-O-methyltransferase (MmcR), recombinant N-His6-MmcR (enzyme, Streptomyces lavendulae)
chain: MTVEQTPENPGTAARAAAEETVNDILQGAWKARAIHVAVELGVPELLQEGPRTATALAEATGAHEQTLRRLLRLLATVGVFDDLGHDDLFAQNALSAVLLPDPASPVATDARFQAAPWHWRAWEQLTHSVRTGEASFDVANGTSFWQLTHEDPKARELFNRAMGSVSLTEAGQVAAAYDFSGAATAVDIGGGRGSLMAAVLDAFPGLRGTLLERPPVAEEARELLTGRGLADRCEILPGDFFETIPDGADVYLIKHVLHDWDDDDVVRILRRIATAMKPDSRLLVIDNLIDERPAASTLFVDLLLLVLVGGAERSESEFAALLEKSGLRVERSLPCGAGPVRIVEIRRA
modifications: selenomethionine (SeMet-labeled protein used for the crystals)
For B1, the “stoichiometry N” value was 2.
